The values that follow come from patent US20040253242A1.

This assay concerns the target cMpl receptor (human (cloned from Tf-1 cells, a human cell line)) (UniProt P40238). The assay can be described thus: cell-based or functional assay.

“TPO (from UniProt P40225 22-353) (ligand)” had a Relative Fold Luciferase activity (c-Fos promoter), CMpl-R transfected NIH3T3 cells; +TPO of 2.32 fold.
